Data on three molecules can be found in patent US20160222132A1 (IGM BIOSCIENES, published 2016).

The target of data set [1] is T1, Fc2b (human µ chain CH2 to CH4 with C291S, L352S, T354K, H395V and I397K mutations and tail piece deletion) (human, UniProt P01871 112-433).
T1 construct: also called Pc2b
T1 chain: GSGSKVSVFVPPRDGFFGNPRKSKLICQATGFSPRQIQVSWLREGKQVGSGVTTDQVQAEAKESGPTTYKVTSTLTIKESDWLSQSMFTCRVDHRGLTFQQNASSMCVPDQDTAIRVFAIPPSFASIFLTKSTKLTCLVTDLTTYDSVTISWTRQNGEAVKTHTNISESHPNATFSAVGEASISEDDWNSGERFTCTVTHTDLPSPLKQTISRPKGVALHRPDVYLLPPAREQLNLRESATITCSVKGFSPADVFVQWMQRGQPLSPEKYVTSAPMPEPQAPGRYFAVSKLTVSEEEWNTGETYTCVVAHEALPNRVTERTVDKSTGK
The data set is described as follows: co-transfection in 293F cells, Capture Select IgM immunoprecipitation, non-reducing SDS-PAGE (FIG. 6, lane 2). How it is done: (§1) IgM was made by co-transfection of several different expression vectors at equal molar ratios into mammalian cells, such as 293F cells (Invitrogen). 10 μg of mixed DNA for expression vectors were mixed with 20 μl of 293Fectin (Invitrogen) for 30 minutes at room temperature in 2 ml of Opti-MEM (Invitrogen) and then added to 10⁷ 293F cells. Transfections with 293F cells were incubated for 72 hours post-transfection before harvesting the supernatant.
(§2) b. Protein purification by immunoprecipitation. [0243] i. Capture Select IgM (Catalog 2890.05, BAC, Thermo Fisher) [0244] Transfected supernatant were harvested by centrifugation at 2,000 G for 10 minutes. IgM proteins were purified by immunoprecipitation with affinity Capture Select IgM affinity matrix. 100 μl of Capture Select IgM slurry were added to 15 ml of harvested supernatant. […] The affinity matrixes were further washed with 60 μl of PBS and the supernatant were pooled for analysis by gel electrophoresis.
(§3) c. Gel electrophoresis [0246] i. Non-reducing SDS Page [0247] Non-reducing SDS PAGE was used to separate various mutant IgM proteins of different molecular weights. Novex 4-12% Bis-Tris Gel (Life Technologies) was used with Novex MES SDS Running Buffer (Life Technologies). [0248] II.

The target in data set [2] is T2, Fc2a (human µ chain CH2 to CH4 region with C291S, T350Y, T354E and I397E mutations and tail piece deletion) (human, UniProt P01871 112-433).
T2 chain: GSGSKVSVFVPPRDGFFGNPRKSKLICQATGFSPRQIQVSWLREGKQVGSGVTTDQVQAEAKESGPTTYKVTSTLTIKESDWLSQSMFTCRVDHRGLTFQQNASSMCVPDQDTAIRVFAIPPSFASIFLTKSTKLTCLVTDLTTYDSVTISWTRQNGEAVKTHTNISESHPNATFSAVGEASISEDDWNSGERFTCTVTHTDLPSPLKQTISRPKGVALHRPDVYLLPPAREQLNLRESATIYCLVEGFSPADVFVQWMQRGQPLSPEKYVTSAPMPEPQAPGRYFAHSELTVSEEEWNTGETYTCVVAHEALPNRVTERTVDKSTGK
The data set is described as follows: co-transfection in 293F cells, Capture Select IgM immunoprecipitation, non-reducing SDS-PAGE (FIG. 6, lane 3). The procedure: as §1, §2, §3

Data set [3] deals with the molecule itself. Briefly: self-association (Fc homodimer); co-transfection of wild-type Okt:Fc in 293F cells, Capture Select IgM immunoprecipitation, non-reducing SDS-PAGE (FIG. 8, lane 1).

B1: Rtx2a (µ chain of chimeric Rituxan (anti-CD20) Vh fused with CM1 to CM4 of human µ chain with C291S, T350Y, T354E and I397E mutations and tail piece deletion) … (antibody)
heavy: QVQLQQPGAELVKPGASVKMSCKASGYTFTSYNMHWVKQTPGRGLEWIGAIYPGNGDTSYNQKFKGKATLTADKSSSTAYMQLSSLTSEDSAVYYCARSTYYGGDWYFNVWGAGTTVTVSSGSASAPTLFPLVSCENSPSDTSSVAVGCLAQDFLPDSITFSWKYKNNSDISSTRGFPSVLRGGKYAATSQVLLPSKDVMQGTDEHVVCKVQHPNGNKEKNVPLPVIAELPPKVSVFVPPRDGFFGNPRKSKLICQATGFSPRQIQVSWLREGKQVGSGVTTDQVQAEAKESGPTTYKVTSTLTIKESDWLSQSMFTCRVDHRGLTFQQNASSMCVPDQDTAIRVFAIPPSFASIFLTKSTKLTCLVTDLTTYDSVTISWTRQNGEAVKTHTNISESHPNATFSAVGEASISEDDWNSGERFTCTVTHTDLPSPLKQTISRPKGVALHRPDVYLLPPAREQLNLRESATIYCLVEGFSPADVFVQWMQRGQPLSPEKYVTSAPMPEPQAPGRYFAHSELTVSEEEWNTGETYTCVVAHEALPNRVTERTVDKSTGK
light: QIVLSQSPAILSASPGEKVTMTCRASSSVSYIHWFQQKPGSSPKPWIYATSNLASGVPVRFSGSGSGTSYSLTISRVEAEDAATYYCQQWTSNPPTFGGGTKLEIKRTVAAPSVFIFPPSDEQLKSGTASVVCLLNNFYPREAKVQWKVDNALQSGNSQESVTEQDSKDSTYSLSSTLTLSKADYEKHKVYACEVTHQGLSSPVTKSFNRGEC
notes: One HL half pairs with the partner µ chain
In the case of B1, the binding result in data set [1] is listed as “binds”.

B2: Rtx2b (µ chain of chimeric Rituxan (anti-CD20) Vh fused with CM1 to CM4 of human mu chain with C291S, L352S, T354K, H395V and I397K mutations and tail piece … (antibody)
heavy: QVQLQQPGAELVKPGASVKMSCKASGYTFTSYNMHWVKQTPGRGLEWIGAIYPGNGDTSYNQKFKGKATLTADKSSSTAYMQLSSLTSEDSAVYYCARSTYYGGDWYFNVWGAGTTVTVSSGSASAPTLFPLVSCENSPSDTSSVAVGCLAQDFLPDSITFSWKYKNNSDISSTRGFPSVLRGGKYAATSQVLLPSKDVMQGTDEHVVCKVQHPNGNKEKNVPLPVIAELPPKVSVFVPPRDGFFGNPRKSKLICQATGFSPRQIQVSWLREGKQVGSGVTTDQVQAEAKESGPTTYKVTSTLTIKESDWLSQSMFTCRVDHRGLTFQQNASSMCVPDQDTAIRVFAIPPSFASIFLTKSTKLTCLVTDLTTYDSVTISWTRQNGEAVKTHTNISESHPNATFSAVGEASISEDDWNSGERFTCTVTHTDLPSPLKQTISRPKGVALHRPDVYLLPPAREQLNLRESATITCSVKGFSPADVFVQWMQRGQPLSPEKYVTSAPMPEPQAPGRYFAVSKLTVSEEEWNTGETYTCVVAHEALPNRVTERTVDKSTGK
light: QIVLSQSPAILSASPGEKVTMTCRASSSVSYIHWFQQKPGSSPKPWIYATSNLASGVPVRFSGSGSGTSYSLTISRVEAEDAATYYCQQWTSNPPTFGGGTKLEIKRTVAAPSVFIFPPSDEQLKSGTASVVCLLNNFYPREAKVQWKVDNALQSGNSQESVTEQDSKDSTYSLSSTLTLSKADYEKHKVYACEVTHQGLSSPVTKSFNRGEC
notes: as for B1
For the molecule B2, in data set [2], the binding result is on record as “binds”.

B3: Fc chain (human IgM µ chain CM2 to CM4, cMyc tag, tail piece replaced by 6His tag, C291S) (other)
chain: GSGSKVSVFVPPRDGFFGNPRKSKLICQATGFSPRQIQVSWLREGKQVGSGVTTDQVQAEAKESGPTTYKVTSTLTIKESDWLSQSMFTCRVDHRGLTFQQNASSMCVPDQDTAIRVFAIPPSFASIFLTKSTKLTCLVTDLTTYDSVTISWTRQNGEAVKTHTNISESHPNATFSAVGEASISEDDWNSGERFTCTVTHTDLPSPLKQTISRPKGVALHRPDVYLLPPAREQLNLRESATITCLVTGFSPADVFVQWMQRGQPLSPEKYVTSAPMPEPQAPGRYFAHSILTVSEEEWNTGETYTCVVAHEALPNRVTERTVDKSTGKGGGSEQKLISEEDLNSAVDHHHHHH
notes: Native CM4 interface; also called wild-type Fc
As for B3, the binding result in data set [3] is reported as “binds”.
